The subject of experiment [1] is mice with myocardial fibrosis. In words: Isoprenaline-induced myocardial fibrosis animal model. In kind it is in vivo. The settings on record: BALB/c mice, isoprenaline 5 mg/kg s.c. daily for 7 days, 12 mg/kg s.c. (Table 5), after the 8th day, FIG. 5. The protocol:
In the model group, the experimental mice were injected with isoprenaline (ISO) (5 mg/kg) subcutaneously on the back of the mice every day for 7 consecutive days, and the mice were injected with normal saline subcutaneously (200 μL/mouse) every day. In the blank group, normal saline was injected subcutaneously (200 μL/mouse) every day. […] After the 8th day, blood was taken and was centrifuged, the supernatant was taken, and the content of TGF-β1 in serum was detected.

The subject of a further experiment is pulmonary infections. In words: Mouse pneumonia model, pneumonia caused by pulmonary infections. Particulars: BALB/C mouse pneumonia model, nasal drip, average ± standard deviation. Format: in vivo, BALB/C mice. The source says: (§1) A mouse pneumonia model was successfully established by using a nasal drip method. BALB/C mice with a body weight of 18-24 g were selected, and then anesthetized with ether on day 0, day 1 and day 2, respectively, prepared Streptococcus pneumoniae bacteria solution, adenovirus concentrated solution, Mycoplasma pneumoniae, Chlamydia pneumoniae, protozoa and pneumonia fungi were slowly dropped into the nasal cavity of the mice, so that the bacteria solutions entered the trachea and bronchi, and the bacteria solutions were prevented from flowing into the esophagus during the operation to avoid inactivation of the bacteria solutions, so that the mouse pneumonia model was established. After the model was successfully established, the recombinant fused polypeptides according to the present invention were administered.

Experiment [2] deals with SD rats with CCl4-induced hepatic fibrosis. In words: CCl4-induced hepatic fibrosis animal model. Format: in vivo. Particulars: 40% CCl4 i.p. twice a week for 8 weeks, fused polypeptides 6 mg/kg s.c. once every five days. Here is the method: Modeling was performed on the rats. Each group other than the blank group was injected with 40% CCl4 intraperitoneally twice a week, the first injection was performed at 3 mL/kg, and then injection was performed at 2 mL/kg. Modeling was performed for 8 weeks to induce hepatic fibrosis. After the intraperitoneal injection of CCl4 for the fourth time, the drugs were administered according to Table 3. After induction for 8 weeks, the administration was stopped. The SD rats were dissected the next day, and blood was taken. The liver tissue was stored in a refrigerator at −80° C. for further use. The expression of HYP in the hepatic tissue of rats was detected. [table]

Experiment [3] relates to SD rats with bleomycin-induced pulmonary fibrosis. In words: Bleomycin-induced pulmonary fibrosis animal model. Format: in vivo. Particulars: for content of TGF-β1 in serum, difference from the model group: fused polypeptides 10 mg/kg s.c. once every five days, nintedanib 25 mg/kg intragastric once a day. Here is the method:
SD rats were anesthetized by intraperitoneal injection of 4% chloral hydrate with a concentration of 1 mL/100 g. After anesthesia, the rats were fixed and their necks were disinfected by using cotton with 75% alcohol. The skin of the rat neck was longitudinally cut with scissors, and the fascia and muscle were longitudinally bluntly torn with tweezers to expose the trachea. A syringe was inserted into the trachea to inject 5 mg/kg bleomycin, while a blank group was injected with an equal amount of normal saline. Then a rat plate was quickly erected and rotated, the rats' breathing was observed, the neck wound was sterilized after rotation and was sewn, and an amoxicillin anti-inflammatory drug was sprinkled on the suture. After the operation, the rats were put back into a dry and clean cage for resting, waiting for awakening. The rats were awakened after about 1-2 hours, and then fed normally. On the 7th day after modeling, modeling group animals randomly fell into a model group, a Nintedanib positive drug group, recombinant fused polypeptide 1, 2, 3 and 4 dosage groups, and a normal control group, and the groups were administered separately for an administration cycle of 15 days. Living situations of rats were observed every day and their weights were weighed. After administration for 15 days, the eyeballs were removed and blood was taken, the rats were dissected, and lungs were taken. The content of TGF-β1 in serum and the content of HYP in lung tissues were detected.

The subject of experiment [4] is mice with bleomycin-induced skin fibrosis. In words: Bleomycin-induced skin fibrosis model. The settings on record: C57/BL mice, bleomycin 10 μg/mL s.c. daily for 28 days, 10 mg/kg s.c. once every five days, 6 times, FIG. 6. Format: in vivo, C57/BL black mice. Here is the method: Bleomycin (10 μg/mL) was injected subcutaneously every day for 28 days to form skin fibrosis. During the modeling period, the administration groups were given drugs for treatment. After modeling, the mice were killed on the next day, and the skin tissue of the mouse back was taken to detect the content of HYP in the skin tissue. [table]

For another experiment, the system named is Mycoplasma pneumoniae. In words: Mouse pneumonia model, mycoplasma pneumonia. The settings on record: BALB/C mouse pneumonia model, nasal drip; average ± standard deviation. Format: in vivo.
From the text: as §1

The subject of experiment [5] is SD rats with renal fibrosis. In words: Renal fibrosis animal model (ureter ligation). Particulars: 6 mg/kg s.c. once every five days, after 15 days. Format: in vivo. Here is the method: A renal fibrosis animal model was established. SD rats were anesthetized with 4% chloral hydrate, injected with 1 mL/100 g intraperitoneally, fixed to an operation board, and sterilized in an operation area for further use. […] Muscular layers and abdominal walls were sewed layer by layer, the suture was disinfected with alcohol. After SD rats woke up, the rats were put into a cage for feeding. In the blank group, ureter was not ligated, and other steps were the same.
Then, the animals fell into a blank group, a model group, and recombinant fused polypeptide administration groups, and the administration was started on the second day after the operation, and was performed for 15 days. After administration for 15 days, blood was taken and supernatant was taken to detect the content of TGF-β1 in serum.

The test system of the next experiment is adenovirus. In words: Mouse pneumonia model, viral pneumonia. In kind it is in vivo. Particulars: BALB/C mouse pneumonia model, nasal drip; average ± standard deviation.
From the text: as §1

The test system of a further experiment is protozoa. In words: Mouse pneumonia model, protozoal pneumonia. Format: in vivo. Particulars: BALB/C mouse pneumonia model, nasal drip; average ± standard deviation.
From the text: as §1

The test system of the next experiment is Streptococcus pneumoniae. In words: Mouse pneumonia model, bacterial pneumonia. In kind it is in vivo. The settings on record: BALB/C mouse pneumonia model, nasal drip; average ± standard deviation.
From the text: as §1

The subject of the next experiment is pneumonia fungi. In words: Mouse pneumonia model, fungal pneumonia. In kind it is in vivo. The settings on record: BALB/C mouse pneumonia model, nasal drip; average ± standard deviation.
From the text: as §1

The subject of the next experiment is Chlamydia pneumoniae. In words: Mouse pneumonia model, chlamydia pneumonia. Format: in vivo. The settings on record: BALB/C mouse pneumonia model, nasal drip; average ± standard deviation.
From the text: as §1

The mark [6] stands for this setting: listed as recombinant fused polypeptide IV.

B1: Acetyl-SDKPGGGGTSLDASIIWAMMQNGGGGLSKLAEAAAKEAAAKEAAAKEAAAKKPRCWRGEGGGGIVRRADRAAVPGGGGRGD (protein)
chain: SDKPGGGGTSLDASIIWAMMQNGGGGLSKLAEAAAKEAAAKEAAAKEAAAKKPRCWRGEGGGGIVRRADRAAVPGGGGRGD
modifications: N-acetyl
notes: Recombinant fused polypeptide Y-linker2-X expressed in 293 cells
As to B1, the “content of TGF-β1 in serum, difference from the model group” value was “significantly different from the model group (**P<0.01)” in [1] (listed as recombinant fused polypeptide 4); “can lower the TGF-β1 content” in experiment [1] (setting [6]); “significantly different from the model group (*P<0.05)” in experiment [3] (bleomycin pulmonary fibrosis, after 15 days, FIG. 2, listed as recombinant fused polypeptide 4); “can lower the TGF-β1 content” in experiment [3] (bleomycin pulmonary fibrosis, after 15 days, FIG. 2, listed as recombinant fused polypeptide IV); “highly significantly different from the model group (***P<0.001)” in [5] (FIG. 4, listed as recombinant fused polypeptide 4, 6 mg/kg); “can lower the TGF-β1 content” in [5] (FIG. 4, listed as recombinant fused polypeptide IV, 6 mg/kg). The figures for the “Inhibitory effect, Pneumonia caused by pulmonary infections” value in the experiment with pulmonary infections and in the experiment with pulmonary infections (setting [6]) were 56.93 ± 5.28 and “inhibitory effect”, respectively. The “content of HYP in liver tissue, difference from the model group” value is “highly significantly different from the model group (***P<0.001)” in experiment [2] (FIG. 3, listed as Recombinant fused polypeptide 4) and “can lower the HYP content” in experiment [2] (FIG. 3, listed as recombinant fused polypeptide IV). Besides, the “Survival rate (%)” value in experiment [3] (bleomycin 5 mg/kg intratracheal, dosage 10 mg/kg (Table 2), administration cycle 15 days from day 7 after modeling) is 92.9%. The “hydroxyproline (HYP) content in lung tissue” value in experiment [3] (bleomycin pulmonary fibrosis, 10 mg/kg s.c. once every five days, after 15 days, FIG. 1) is “can lower the hydroxyproline content”. The “content of HYP in skin tissue, difference from the model group” value in experiment [4] (listed as recombinant fused polypeptide 4, 10 mg/kg) is given as “highly significantly different from the model group (***P<0.001)”; in [4] (listed as recombinant fused polypeptide IV, 10 mg/kg), “can lower the hydroxyproline content”. Besides, the “Inhibitory effect, Mycoplasma pneumonia” value in the experiment with Mycoplasma pneumoniae was 47.30 ± 5.30. Moreover, in the experiment on adenovirus, the “Inhibitory effect, Viral pneumonia” value stood at 78.12 ± 8.27. Further, the “Inhibitory effect, Protozoal pneumonia” value in the experiment on protozoa came out at 63.45 ± 4.68. In the experiment on Streptococcus pneumoniae, the “Inhibitory effect, Bacterial pneumonia” value turned out to be 48.61 ± 6.54. In the experiment with pneumonia fungi, the “Inhibitory effect, Fungal pneumonia” value came out at 54.12 ± 5.12. In addition, the “Inhibitory effect, Chlamydia pneumonia” value with Chlamydia pneumoniae is 55.26 ± 6.12.
